Measured values reported in patent US20220185903A1, “Novel bispecific binding molecule and drug conjugate thereof” (priority 2019, published 2022).
Where a SMILES comes first, the peptide text is derived from it. [ ]: non-standard residue; d: D form. The star is where a group is joined. Dolaproine = CO[C@@H]([C@@H]1CCCN1)[C@@H](C)C(=O)O; Dil = CC[C@H](C)[C@H](NC)[C@@H](CC(=O)O)OC; X1 = C[C@@H](N*)[C@@H](O)c1ccccc1; NMeV = CN[C@H](C(=O)O)C(C)C

Legend:
[1] = tested on: CD20−/CXCR4+ Jurkat cells; experiment: Killing activity of ADC on co-cultured Ramos/Jurkat cells: Jurkat count; type: cell-based; conditions: co-cultured Ramos/Jurkat 1:1, 72 hours, flow cytometer count
Experimental: (§1) 6.2 Analysis of Killing Activity of ADC on Co-Cultured Ramos/Jurkat Cells
(§2) Ramos and Jurkat cells (RPMI 1640 medium containing 10% FBS and 1% double antibody) were cultured, respectively. Jurkat cells were stained with calcein-AM (eBioscience) and Ramos cells stained with Celltracker Organge CMTMR (Invitrogen) according to protocols provided by the manufacturer, followed by washed for three times with PBS. After cell count, Ramos and Jurkat cells were mixed at a ratio of 1:1, and 2×10^4 Ramos/Jurkat mixed cells were added to a U-shaped bottom 96-well plate (90 ul/well). 10 ul of SYN-AC, RTX or RXT-AC with different concentrations was added to the 96-well plate above, and incubated at 37° C., 5% CO2 for 72 hours. The numbers of the Ramos and Jurkat cells were counted with a flow cytometer (BD LSR II with a BD high throughput Sampler (HTS)).

[2] = tested on: CD20+/CXCR4+ Ramos cells; experiment: Killing activity of ADC on co-cultured Ramos/Jurkat cells: Ramos count; type: cell-based
Experimental: as §1, §2

[3] = biological target: T1, CD20 (UniProt P11836 1-297, limits assumed); experiment: cell-based or functional assay
T1 sequence (looked up): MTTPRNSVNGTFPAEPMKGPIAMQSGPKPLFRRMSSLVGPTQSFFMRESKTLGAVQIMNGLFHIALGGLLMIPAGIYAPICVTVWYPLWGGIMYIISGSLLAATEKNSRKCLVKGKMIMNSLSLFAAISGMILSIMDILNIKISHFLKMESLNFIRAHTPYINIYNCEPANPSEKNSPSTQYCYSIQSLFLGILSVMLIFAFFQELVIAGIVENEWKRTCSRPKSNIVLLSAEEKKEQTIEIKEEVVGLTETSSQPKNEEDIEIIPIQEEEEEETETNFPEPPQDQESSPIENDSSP

[4] = biological target: T2, CXCR4 (UniProt P61073 1-352, limits assumed); experiment: cell-based or functional assay
[5] = biological target: T2, CXCR4; experiment: flow cytometry on CXCR4+/CD20- Jurkat cells
Experimental: (§3) The CXCR4⁺/CD20⁻ Jurkat cells and CXCR4^dim/CD20⁺JAB cells were cultured in RPMI 1640 medium containing 10% FBS and […]). Cells were collected by centrifugation, and washed with PBS for 3-4 times. After blocked by 1% BSA (in PBS) at 4° C. for 1 h, the cells were resuspended with PBS with 1% BSA at a density of 5×10⁵/100 μL. […] After being washed with PBS with 1% BSA for 3 times, cells were resuspended with PBS/1% BSA containing a PE-anti-human Fc antibody (Clone HP6017, Biolegend, CA), and incubated at 4° C. for 2 hours. Then an LSR II flow cytometer (Becton Dickinson, N.J.) was applied, and FlowJo software (TreeStar, OR) was used for analysis. Data was analyzed by nonlinear regression using a log (agonist) vs. response model in Prizm Graphpad software.

[6] = biological target: T2, CXCR4; experiment: flow cytometry on CXCR4+/CD20- Jurkat cells, PE-anti-human Fc detection
Experimental: as §3

T2 sequence (P61073 whole entry): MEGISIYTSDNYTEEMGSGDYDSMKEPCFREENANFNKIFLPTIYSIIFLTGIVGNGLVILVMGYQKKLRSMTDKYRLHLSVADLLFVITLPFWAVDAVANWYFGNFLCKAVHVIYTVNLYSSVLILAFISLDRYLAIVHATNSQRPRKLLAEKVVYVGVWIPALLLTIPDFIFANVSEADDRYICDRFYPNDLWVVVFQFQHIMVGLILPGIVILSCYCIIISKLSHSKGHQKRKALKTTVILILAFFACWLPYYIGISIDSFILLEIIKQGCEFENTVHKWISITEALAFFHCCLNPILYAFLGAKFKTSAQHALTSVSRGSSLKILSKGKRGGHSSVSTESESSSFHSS

## CC[C@H](C)[C@@H]([C@@H](CC(=O)N1CCC[C@H]1[C@H](OC)[C@@H](C)C(=O)N[C@H](C)[C@@H](O)c1ccccc1)OC)N(C)C(=O)[C@@H](NC(=O)[C@@H](NC)C(C)C)C(C)C [MMAE, monomethylalistatin E, reference compound] (H-[NMeV]V[Dil][Dolaproine]-X1)
[1]
  EC50: 24.5 ± 6.8 nM
[2]; co-cultured Jurkat and Ramos cells, selectivity Jurkat vs Ramos
  TI (therapeutic index): 2.7
[2]; co-cultured Ramos/Jurkat 1:1, 72 hours, flow cytometer count
  EC50: 9.1 ± 3.8 nM

B1: RTX-MMAE (RTX conjugated with NHS-PEG4-MMAE) (other)
heavy: QVQLQQPGAELVKPGASVKMSCKASGYTFTSYNMHWVKQTPGRGLEWIGAIYPGNGDTSYNQKFKGKATLTADKSSSTAYMQLSSLTSEDSAVYYCARSTYYGGDWYFNVWGAGTTVTVSAASTKGPSVFPLAPSSKSTSGGTAALGCLVKDYFPEPVTVSWNSGALTSGVHTFPAVLQSSGLYSLSSVVTVPSSSLGTQTYICNVNHKPSNTKVDKKVEPKSCDKTHTCPPCPAPPVAGPSVFLFPPKPKDTLMISRTPEVTCVVVDVSHEDPEVKFNWYVDGVEVHNAKTKPREEQYNSTYRVVSVLTVLHQDWLNGKEYKCKVSNKGLPSSIEKTISKAKGQPREPQVYTLPPSRDELTKNQVSLTCLVKGFYPSDIAVEWESNGQPENNYKTTPPVLDSDGSFFLYSKLTVDKSRWQQGNVFSCSVMHEALHNHYTQKSLSLSPGK
light: QIVLSQSPAILSASPGEKVTMTCRASSSVSYIHWFQQKPGSSPKPWIYATSNLASGVPVRFSGSGSGTSYSLTISRVEAEDAATYYCQQWTSNPPTFGGGTKLEIKRTVAAPSVFIFPPSDEQLKSGTASVVCLLNNFYPREAKVQWKVDNALQSGNSQESVTEQDSKDSTYSLSSTLTLSKADYEKHKVYACEVTHQGLSSPVTKSFNRGEC
modifications: conjugated with NHS-PEG4-MMAE, 0 to 2 per light chain by MS; sites not stated; conjugated with NHS-PEG4-MMAE, 0 to 2 per heavy chain by MS; sites not stated
[3]
  EC50 (nM), killing of Ramos cells in co-cultured Ramos/Jurkat cells, 72 h: 6 nM

B2: RTX-AC-MMAE (RTX-AC conjugated with NHS-PEG4-MMAE) (other)
heavy: QVQLQQPGAELVKPGASVKMSCKASGYTFTSYNMHWVKQTPGRGLEWIGAIYPGNGDTSYNQKFKGKATLTADKSSSTAYMQLSSLTSEDSAVYYCARSTYYGGDWYFNVWGAGTTVTVSAASTKGPSVFPLAPSSKSTSGGTAALGCLVKDYFPEPVTVSWNSGALTSGVHTFPAVLQSSGLYSLSSVVTVPSSSLGTQTYICNVNHKPSNTKVDKKVEPKSCDKTHTCPPCPAPPVAGPSVFLFPPKPKDTLMISRTPEVTCVVVDVSHEDPEVKFNWYVDGVEVHNAKTKPREEQYNSTYRVVSVLTVLHQDWLNGKEYKCKVSNKGLPSSIEKTISKAKGQPREPQVYTLPPSRDELTKNQVSLTCLVKGFYPSDIAVEWESNGQPENNYKTTPPVLDSDGSFFLYSKLTVDKSRWQQGNVFSCSVMHEALHNHYTQKSLSLSPGK
light: QIVLSQSPAILSASPGEKVTMTCRASSSVSYIHWFQQKPGSSPKPWIYATSNLASGVPVRFSGSGSGTSYSLTISRVEAEDAATYYCQQWTSNPPTFGGGTKLEIKRTVAAPSVFIFPPSDEQLKSGTASVVCLLNNFYPREAKVQWKVDNALQSGNSQESVTEQDSGGSGAKLAALKAKLAALKGGGGSYRKCRGGRRWCYQKGGGGSELAALEAELAALEAGGSGDSTYSLSSTLTLSKADYEKHKVYACEVTHQGLSSPVTKSFNRGEC
modifications: conjugated with NHS-PEG4-MMAE, 0 to 2 per light chain by MS; sites not stated; conjugated with NHS-PEG4-MMAE, 0 to 3 per heavy chain by MS; sites not stated
[3]
  EC50 (nM), killing of Ramos cells in co-cultured Ramos/Jurkat cells, 72 h: 0.29 nM
[4]
  EC50 (nM), killing of Ramos cells in co-cultured Ramos/Jurkat cells, 72 h: 0.29 nM

B3: RTX-AC (Rituxan with the CXCR4 antagonistic peptide inserted into the constant region of the light chain) (bispecific antibody, human IgG1, kappa)
heavy: QVQLQQPGAELVKPGASVKMSCKASGYTFTSYNMHWVKQTPGRGLEWIGAIYPGNGDTSYNQKFKGKATLTADKSSSTAYMQLSSLTSEDSAVYYCARSTYYGGDWYFNVWGAGTTVTVSAASTKGPSVFPLAPSSKSTSGGTAALGCLVKDYFPEPVTVSWNSGALTSGVHTFPAVLQSSGLYSLSSVVTVPSSSLGTQTYICNVNHKPSNTKVDKKVEPKSCDKTHTCPPCPAPPVAGPSVFLFPPKPKDTLMISRTPEVTCVVVDVSHEDPEVKFNWYVDGVEVHNAKTKPREEQYNSTYRVVSVLTVLHQDWLNGKEYKCKVSNKGLPSSIEKTISKAKGQPREPQVYTLPPSRDELTKNQVSLTCLVKGFYPSDIAVEWESNGQPENNYKTTPPVLDSDGSFFLYSKLTVDKSRWQQGNVFSCSVMHEALHNHYTQKSLSLSPGK
light: QIVLSQSPAILSASPGEKVTMTCRASSSVSYIHWFQQKPGSSPKPWIYATSNLASGVPVRFSGSGSGTSYSLTISRVEAEDAATYYCQQWTSNPPTFGGGTKLEIKRTVAAPSVFIFPPSDEQLKSGTASVVCLLNNFYPREAKVQWKVDNALQSGNSQESVTEQDSGGSGAKLAALKAKLAALKGGGGSYRKCRGGRRWCYQKGGGGSELAALEAELAALEAGGSGDSTYSLSSTLTLSKADYEKHKVYACEVTHQGLSSPVTKSFNRGEC
notes: hIgG1 Fc with E233P/L234V/L235A/deltaG236+A327G/A330S/P331S; also called RXT-AC
[5]
  binding result: binds

B4: RTX (Rituxan, anti-CD20 antibody) (antibody, V domains shown)
VH: QVQLQQPGAELVKPGASVKMSCKASGYTFTSYNMHWVKQTPGRGLEWIGAIYPGNGDTSYNQKFKGKATLTADKSSSTAYMQLSSLTSEDSAVYYCARSTYYGGDWYFNVWGAGTTVTVSA
VL: QIVLSQSPAILSASPGEKVTMTCRASSSVSYIHWFQQKPGSSPKPWIYATSNLASGVPVRFSGSGSGTSYSLTISRVEAEDAATYYCQQWTSNPPTFGGGTKLEIKR
notes: Rituxan Fab heavy chain cloned into pFuse-hIgG1-Fc carrying E233P/L234V/L235A/deltaG236+A327G/A330S/P331S; expressed in HEK293
[6]
  binding result: no binding

B5: SYN-AC-MMAE (SYN-AC conjugated with NHS-PEG4-MMAE) (other)
heavy: QVTLRESGPALVKPTQTLTLTCTFSGFSLSTSGMSVGWIRQPPGKALEWLADIWWDDKKDYNPSLKSRLTISKDTSKNQVVLKVTNMDPADTATYYCARSMITNWYFDVWGAGTTVTVSSASTKGPSVFPLAPSSKSTSGGTAALGCLVKDYFPEPVTVSWNSGALTSGVHTFPAVLQSSGLYSLSSVVTVPSSSLGTQTYICNVNHKPSNTKVDKKVEPKSCDKTHTCPPCPAPPVAGPSVFLFPPKPKDTLMISRTPEVTCVVVDVSHEDPEVKFNWYVDGVEVHNAKTKPREEQYNSTYRVVSVLTVLHQDWLNGKEYKCKVSNKGLPSSIEKTISKAKGQPREPQVYTLPPSRDELTKNQVSLTCLVKGFYPSDIAVEWESNGQPENNYKTTPPVLDSDGSFFLYSKLTVDKSRWQQGNVFSCSVMHEALHNHYTQKSLSLSPGK
light: DIQMTQSPSTLSASVGDRVTITCKCQLSVGYMHWYQQKPGKAPKLLIYDTSKLASGVPSRFSGSGSGTEFTLTISSLQPDDFATYYCFQGSGYPFTFGGGTKLEIKRTVAAPSVFIFPPSDEQLKSGTASVVCLLNNFYPREAKVQWKVDNALQSGNSQESVTEQDSGGSGAKLAALKAKLAALKGGGGSYRKCRGGRRWCYQKGGGGSELAALEAELAALEAGGSGDSTYSLSSTLTLSKADYEKHKVYACEVTHQGLSSPVTKSFNRGEC
modifications: conjugated with NHS-PEG4-MMAE, 0 to 2 per light chain by MS; sites not stated; conjugated with NHS-PEG4-MMAE, 0 to 2 per heavy chain by MS; sites not stated
[4]
  EC50 (nM), killing of Jurkat cells in co-cultured Ramos/Jurkat cells, 72 h: 21 nM
  EC50 (nM), killing of Ramos cells in co-cultured Ramos/Jurkat cells, 72 h: 12.6 nM

B6: SYN-AC (Synagis, anti-RSV, with the CXCR4 antagonistic peptide inserted into the constant region of the light chain) (bispecific antibody, human IgG1, kappa)
heavy: QVTLRESGPALVKPTQTLTLTCTFSGFSLSTSGMSVGWIRQPPGKALEWLADIWWDDKKDYNPSLKSRLTISKDTSKNQVVLKVTNMDPADTATYYCARSMITNWYFDVWGAGTTVTVSSASTKGPSVFPLAPSSKSTSGGTAALGCLVKDYFPEPVTVSWNSGALTSGVHTFPAVLQSSGLYSLSSVVTVPSSSLGTQTYICNVNHKPSNTKVDKKVEPKSCDKTHTCPPCPAPPVAGPSVFLFPPKPKDTLMISRTPEVTCVVVDVSHEDPEVKFNWYVDGVEVHNAKTKPREEQYNSTYRVVSVLTVLHQDWLNGKEYKCKVSNKGLPSSIEKTISKAKGQPREPQVYTLPPSRDELTKNQVSLTCLVKGFYPSDIAVEWESNGQPENNYKTTPPVLDSDGSFFLYSKLTVDKSRWQQGNVFSCSVMHEALHNHYTQKSLSLSPGK
light: DIQMTQSPSTLSASVGDRVTITCKCQLSVGYMHWYQQKPGKAPKLLIYDTSKLASGVPSRFSGSGSGTEFTLTISSLQPDDFATYYCFQGSGYPFTFGGGTKLEIKRTVAAPSVFIFPPSDEQLKSGTASVVCLLNNFYPREAKVQWKVDNALQSGNSQESVTEQDSGGSGAKLAALKAKLAALKGGGGSYRKCRGGRRWCYQKGGGGSELAALEAELAALEAGGSGDSTYSLSSTLTLSKADYEKHKVYACEVTHQGLSSPVTKSFNRGEC
notes: hIgG1 Fc with E233P/L234V/L235A/deltaG236+A327G/A330S/P331S
[5]
  binding result: binds
